Source: article PMC10137048

Target: amyloid beta (Aβ) peptide Aβ42

- stoichiometry N: < 4
Substance: amyloid beta (Aβ) peptide Aβ42
